From paper PMC9947222 come the findings set out here.

What is called Kd is the equilibrium constant for the complex coming apart.

Data set [1] concerns the target mouse IgG2a (mIgG2a) antibody (BALB/c IgG2a,κ Purified Mouse Anti-Mouse I-A[b], Clone AF6-120.1), conjugated to the S1-handle DNA with P3 docking site (mouse). The data set is described as follows: DNA-PAINT super-resolution microscopy on DNA origami (labeling efficiency); mIgG2a-DNA conjugate (60 nM) hybridised to DNA origami held by neutravidin on a biotin-PEG surface; κLC-Nb-7xR3 added in 0.5x buffer C + 1.5% BSA, >45 min at RT, excess washed off; two rounds of Exchange-PAINT (R3, P3); R3 clusters <19 nm from P3 clusters counted.

Data set [2] relates to anti-NP mAb clone B1-8 (Abcam ab206523) (mouse). The data set is described as follows: FIDA. The note with it: binding via NIP hapten; in solution; LNA/2'-OMe as N0; one 5' amino-C6 NIP hapten (carrier strand not stated); BLI: PBS, 0.02% Tween-20, 0.1% BSA, pH 7.4, HJ 0.2-20 nM, temperature not stated; all positive binding is through the NP/NIP hapten, not the nucleic acid.

Consider “anti-mouse kappa light chain nanobody (κLC-Nb) with Ser87 replaced by Cys87, conjugated to the DNA-PAINT docking strand 7xR3 (VHH)”, for which, in data set [1], the Fab labeling density was 80% and the nanobodies bound per BCR (average) is 1.5.
For “CCGTCCTGAGCC / CACAGTGGACGG / GGCTCACCGATC / GATCGGACTGTG [HJ-1xNIP]”, the Kd in data set [2] came to 20 nM.
